Data as given in patent US9724381B2 (THE ADMINISTRATORS OF THE TULANE EDUCATIONAL FUND, priority 2009, dated 2017).
Values belong to the substance of their own block, whether it stands above or below them. Where no end group is shown, it is not given here. [ ]: non-standard residue; d: D form. d2Nal = N[C@H](Cc1ccc2ccccc2c1)C(=O)O; dCha = N[C@H](CC1CCCCC1)C(=O)O; Nle = CCCC[C@H](N)C(=O)O; Orn = NCCC[C@H](N)C(=O)O; Dab = NCC[C@H](N)C(=O)O; dPal = not defined here; Aib = CC(C)(N)C(=O)O; GABA = NCCCC(=O)O

Tests used:
[1] = target: T1, Ghrelin/GHRP/GHS Receptor (Rattus norvegicus, UniProt O08725); assay: In vitro GH release from cell culture of pituitary cells; assay type: cell-based; parameters: After dispersion, the cells were collected by centrifugation, wash with DMEM and placed into culture well; endogenous in cells; host or cells: dispersed primary rat anterior pituitary cells; conditions: Table 8
Method: In vitro GH Release-Female rats of the CD-1 strain were housed in a constant temperature room at 24° C. with 14 h light and 10 h darkness. The rats were fed Purina Rat chow and water at libitum. All studies were started between 0800-1000 hours. Pituitaries of mature female Sprague Dawley rats were rapidly removed after decapitation, neurointermediate lobe discarded and then placed in a pH 7.4 buffer. The pituitaries were cut into ˜3-mm pieces and then transferred to a flask containing HEPS buffer with trypsin and incubated at 37° C. Cells were triturated several times during this period. After dispersion, the cells were collected by centrifugation, wash with DMEM and placed into culture well. Cell cultures were maintained for 4 days at 37° with 8% CO2 added to the incubator atmosphere. After 4 days in culture, cells were washed with lactated Ringer's solution adjusted to pH 7.2-7.4 and then vehicle, peptide alone or peptide plus stimulator was added to media. Incubation time was 60-120 minutes after which media was removed from each well for GH determination. The GH RIA reagents were distributed by the NIH. Control data was collected from cell cultures treated with only the corresponding vehicle in the absence of peptide or stimulator. Control stimulated data was collected from cell cultures treated with stimulator alone in the absence of any peptide.

[2] = target: T1, Ghrelin/GHRP/GHS Receptor; assay: In vivo GH release in rat (serum GH by RIA after i.v. peptide); conditions: for Unstimulated Basal GH Release from rat: Table 3; for Unstimulated Basal GH release from rats: Table 5; for Stimulated GH release from rat: Table 2; for Stimulated (S) GH release from rats / Unstimulated GH release from rats: Table 4; for Stimulated (S) GH release from rats: P + S; for Unstimulated GH release from rats: −S
Method: For the in vivo assay of GH Release in rat, immature female Sprague Dawley rats were obtained from Charles River from Wilmington, Mass. After arrival they were housed at 25° C. with a 14:10 h light:dark cycle. Water and Purina rat chow were available at libitum. Pups were weaned at 21 days of age.
Immature twenty six day old female Sprague Dawley rats, 3-6 rats per treatment dose, were pretreated with pentobarbital 20 minutes before iv injection of vehicle/peptide or peptide plus stimulator. Injection was made as a 0.1 ml solution. For the non-pentobarbital treated rat assay, peptides were administered iv into the tail vein of conscious rats. All animals were sacrificed by guillotine after iv peptide or vehicle. Trunk blood was collected at +10-15 minutes […], allowed to clot, centrifuged and serum stored until assayed for GH levels by RIA. The GH RIA reagents were distributed by the NIH. Control data was collected from rats treated with only the corresponding vehicle in the absence of peptide or stimulator. Control stimulated data was collected from rats treated with stimulator alone in the absence of any peptide.

[3] = peptide antagonist dosage 1 (head prints μg/i.v.)
[4] = peptide antagonist dosage 3 (head prints μg/i.v.)
[5] = peptide antagonist dosage 10 (head prints μg/i.v.)
[6] = peptide antagonist dosage 30 (head prints μg/i.v.)
[7] = peptide antagonist dosage 100 (head prints μg/i.v.)
[8] = peptide antagonist alone 1 μg i.v.
[9] = peptide antagonist alone 10 μg i.v.
[10] = peptide antagonist alone 30 μg i.v.

T1 sequence (O08725 whole entry): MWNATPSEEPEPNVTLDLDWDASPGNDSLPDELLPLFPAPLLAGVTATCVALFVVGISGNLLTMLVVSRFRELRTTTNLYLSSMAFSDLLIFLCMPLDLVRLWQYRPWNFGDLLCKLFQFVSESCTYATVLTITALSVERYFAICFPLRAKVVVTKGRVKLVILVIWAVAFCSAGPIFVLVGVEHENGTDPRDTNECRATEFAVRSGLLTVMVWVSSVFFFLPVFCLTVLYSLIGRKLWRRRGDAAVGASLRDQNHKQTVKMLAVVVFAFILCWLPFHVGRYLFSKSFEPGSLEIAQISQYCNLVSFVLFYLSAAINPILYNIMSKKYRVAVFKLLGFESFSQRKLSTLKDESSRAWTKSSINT

Unstimulated Basal GH release from cell cultures of pituitary cells [1, 4]: 1081 ± 50 ng/mL
Unstimulated Basal GH release from cell cultures of pituitary cells [1, 5]: 997 ± 30 ng/mL
Unstimulated Basal GH release from cell cultures of pituitary cells [1, 6]: 425 ± 25 ng/mL
Substance: DPal-Phe-DTrp-Phe-Met-NH2 ([dPal]F[dW]FM-NH2; reading uncertain; also: printed as DPal-Phe-DTrp-Phe-Met-NH2)

Unstimulated Basal GH release from cell cultures of pituitary cells [1, 4]: 1146 ± 34 ng/mL
Unstimulated Basal GH release from cell cultures of pituitary cells [1, 5]: 1086 ± 32 ng/mL
Unstimulated Basal GH release from cell cultures of pituitary cells [1, 6]: 871 ± 89 ng/mL
Substance: DPhe-Trp-DPhe-Phe-Met-NH2 ([dF]W[dF]FM-NH2; N-terminus assumed; SMILES CSCC[C@H](NC(=O)[C@H](Cc1ccccc1)NC(=O)[C@@H](Cc1ccccc1)NC(=O)[C@H](Cc1c[nH]c2ccccc12)NC(=O)[C@H](N)Cc1ccccc1)C(N)=O)

Unstimulated Basal GH release from cell cultures of pituitary cells [1, 4]: 1105 ± 18 ng/mL
Unstimulated Basal GH release from cell cultures of pituitary cells [1, 5]: 891 ± 4 ng/mL
Unstimulated Basal GH release from cell cultures of pituitary cells [1, 6]: 567 ± 24 ng/mL
Substance: DPal-Trp-DPhe-Phe-Met-NH2 ([dPal]W[dF]FM-NH2; reading uncertain; also: printed as DPal-Trp-DPhe-Phe-Met-NH2)

Unstimulated Basal GH release from rats [2, 8]: 85 ± 25 ng/mL
Unstimulated Basal GH release from rats [2, 9]: 88 ± 18 ng/mL
Unstimulated Basal GH release from rats [2, 10]: 50 ± 6 ng/mL
Substance: αAbu-DTrp-DTrp-Orn-NH2

Unstimulated Basal GH release from rats [2, 9]: 228 ± 76 ng/mL
Unstimulated Basal GH release from rats [2, 10]: 172 ± 14 ng/mL
Unstimulated Basal GH release from rats ([2]; peptide antagonist alone 100 μg i.v.): 153 ± 45 ng/mL
Substance: DAla-Ala-DAla-DTrp-Phe-Lys-NH2 ([dA]A[dA][dW]FK-NH2; N-terminus assumed; SMILES C[C@H](NC(=O)[C@@H](C)N)C(=O)N[C@H](C)C(=O)N[C@H](Cc1c[nH]c2ccccc12)C(=O)N[C@@H](Cc1ccccc1)C(=O)N[C@@H](CCCCN)C(N)=O)

Unstimulated Basal GH release from rats [2, 8]: 118 ± 16 ng/mL
Unstimulated Basal GH release from rats [2, 9]: 126 ± 27 ng/mL
Unstimulated Basal GH release from rats [2, 10]: 79 ± 31 ng/mL
Substance: αγAbu-DTrp-DTrp-Orn-NH2

Unstimulated Basal GH Release from rat ([2]; peptide alone 1 μg i.v.): 204 ± 44 ng/mL
Unstimulated Basal GH Release from rat ([2]; peptide alone 3 μg i.v.): 127 ± 44 ng/mL
Unstimulated Basal GH Release from rat ([2]; peptide alone 10 μg i.v.): 83 ± 5 ng/mL
Substance: His-Trp-DAla-DTrp-Phe-LysNH2 (HW[dA][dW]FK-NH2)

Further lines, the substance ahead of its results:

Substance: DAla-DcyclohexylAla-Ala-Ala-Phe-DPhe-Nle-NH2 ([dA][dCha]AAF[dF][Nle]-NH2; N-terminus assumed; SMILES CCCC[C@H](NC(=O)[C@@H](Cc1ccccc1)NC(=O)[C@H](Cc1ccccc1)NC(=O)[C@H](C)NC(=O)[C@H](C)NC(=O)[C@@H](CC1CCCCC1)NC(=O)[C@@H](C)N)C(N)=O)
Unstimulated Basal GH release from cell cultures of pituitary cells [1, 3]: 286 ± 75 ng/mL
Unstimulated Basal GH release from cell cultures of pituitary cells [1, 4]: 177 ± 44 ng/mL
Unstimulated Basal GH release from cell cultures of pituitary cells [1, 5]: 271 ± 38 ng/mL
Unstimulated Basal GH release from cell cultures of pituitary cells [1, 6]: 376 ± 28 ng/mL

Substance: Ac-DβNal-DTrp-NH2
Unstimulated Basal GH release from cell cultures of pituitary cells [1, 4]: 1264 ± 2 ng/mL
Unstimulated Basal GH release from cell cultures of pituitary cells [1, 5]: 980 ± 72 ng/mL
Unstimulated Basal GH release from cell cultures of pituitary cells [1, 6]: 699 ± 7 ng/mL

Substance: Ac-DLys-Tyr-DTrp-DTrp-Phe-NH2 (Ac-[dK]Y[dW][dW]F-NH2; SMILES CC(=O)N[C@H](CCCCN)C(=O)N[C@@H](Cc1ccc(O)cc1)C(=O)N[C@H](Cc1c[nH]c2ccccc12)C(=O)N[C@H](Cc1c[nH]c2ccccc12)C(=O)N[C@@H](Cc1ccccc1)C(N)=O)
Unstimulated Basal GH release from cell cultures of pituitary cells [1, 4]: 105 ± 8 ng/mL
Unstimulated Basal GH release from cell cultures of pituitary cells [1, 5]: 950 ± 91 ng/mL
Unstimulated Basal GH release from cell cultures of pituitary cells [1, 6]: 782 ± 56 ng/mL
Unstimulated Basal GH release from cell cultures of pituitary cells [1, 7]: 756 ± 1 ng/mL

Substance: DLys-Tyr-DTrp-DTrp-Phe-NH2 ([dK]Y[dW][dW]F-NH2; N-terminus assumed; SMILES NCCCC[C@@H](N)C(=O)N[C@@H](Cc1ccc(O)cc1)C(=O)N[C@H](Cc1c[nH]c2ccccc12)C(=O)N[C@H](Cc1c[nH]c2ccccc12)C(=O)N[C@@H](Cc1ccccc1)C(N)=O)
Unstimulated Basal GH release from cell cultures of pituitary cells [1, 3]: 1451 ± 19 ng/mL
Unstimulated Basal GH release from cell cultures of pituitary cells [1, 4]: 1175 ± 77 ng/mL
Unstimulated Basal GH release from cell cultures of pituitary cells [1, 5]: 1129 ± 6 ng/mL
Unstimulated Basal GH release from cell cultures of pituitary cells [1, 6]: 744 ± 44 ng/mL

Substance: Arg-DTrp-Leu-Tyr-Trp-Pro(cyclic Arg-Pro)
Unstimulated Basal GH release from cell cultures of pituitary cells [1, 4]: 1480 ± 19 ng/mL
Unstimulated Basal GH release from cell cultures of pituitary cells [1, 5]: 802 ± 26 ng/mL
Unstimulated Basal GH release from cell cultures of pituitary cells [1, 6]: 601 ± 16 ng/mL
Unstimulated Basal GH release from cell cultures of pituitary cells [1, 7]: 509 ± 49 ng/mL

Substance: DPhe-Ala-Phe-DPhe-Lys-NH2 ([dF]AF[dF]K-NH2; N-terminus assumed; SMILES C[C@H](NC(=O)[C@H](N)Cc1ccccc1)C(=O)N[C@@H](Cc1ccccc1)C(=O)N[C@H](Cc1ccccc1)C(=O)N[C@@H](CCCCN)C(N)=O)
Unstimulated Basal GH release from cell cultures of pituitary cells [1, 5]: 267 ± 27 ng/mL
Unstimulated Basal GH release from cell cultures of pituitary cells [1, 6]: 276 ± 65 ng/mL
Unstimulated Basal GH release from cell cultures of pituitary cells [1, 7]: 360 ± 84 ng/mL

Substance: DcyclohexylAla-Ala-Trp-DPhe-NH2 ([dCha]AW[dF]-NH2; N-terminus assumed; SMILES C[C@H](NC(=O)[C@H](N)CC1CCCCC1)C(=O)N[C@@H](Cc1c[nH]c2ccccc12)C(=O)N[C@H](Cc1ccccc1)C(N)=O)
Unstimulated Basal GH Release from rat ([2]; peptide alone 3 μg i.v.): 181 ± 28 ng/mL
Unstimulated Basal GH Release from rat ([2]; peptide alone 10 μg i.v.): 237 ± 18 ng/mL
Unstimulated Basal GH Release from rat ([2]; peptide alone 30 μg i.v.): 354 ± 81 ng/mL
Unstimulated Basal GH Release from rat ([2]; peptide alone 100 μg i.v.): 771 ± 76 ng/mL

Substance: αγAbu-DTrp-DTrp-Lys-NH2 ([Dab][dW][dW]K-NH2; N-terminus assumed; SMILES NCCCC[C@H](NC(=O)[C@@H](Cc1c[nH]c2ccccc12)NC(=O)[C@@H](Cc1c[nH]c2ccccc12)NC(=O)[C@@H](N)CCN)C(N)=O)
Unstimulated Basal GH release from rats [2, 8]: 57 ± 7 ng/mL
Unstimulated Basal GH release from rats ([2]; peptide antagonist alone 3 μg i.v.): 84 ± 18 ng/mL
Unstimulated Basal GH release from rats [2, 9]: 62 ± 15 ng/mL

Substance: [GABA][dW][dW][Orn]-NH2
Unstimulated Basal GH release from rats [2, 8]: 82 ± 28 ng/mL
Unstimulated Basal GH release from rats [2, 9]: 90 ± 5 ng/mL
Unstimulated Basal GH release from rats [2, 10]: 113 ± 32 ng/mL

Substance: His-DTrp-Phe-Trp-DPhe-Lys-NH2 (H[dW]FW[dF]K-NH2; N-terminus assumed; SMILES NCCCC[C@H](NC(=O)[C@@H](Cc1ccccc1)NC(=O)[C@H](Cc1c[nH]c2ccccc12)NC(=O)[C@H](Cc1ccccc1)NC(=O)[C@@H](Cc1c[nH]c2ccccc12)NC(=O)[C@@H](N)Cc1c[nH]cn1)C(N)=O)
Unstimulated Basal GH Release from rat ([2]; peptide alone 1 μg i.v.): 67 ± 14 ng/mL
Unstimulated Basal GH Release from rat ([2]; peptide alone 3 μg i.v.): 141 ± 53 ng/mL
Unstimulated Basal GH Release from rat ([2]; peptide alone 10 μg i.v.): 197 ± 70 ng/mL
Unstimulated Basal GH Release from rat ([2]; peptide alone 30 μg i.v.): 509 ± 48 ng/mL

Substance: DAla-DβNal-DLys-DTrp-Phe-Lys-NH2 ([dA][d2Nal][dK][dW]FK-NH2; N-terminus assumed; SMILES C[C@@H](N)C(=O)N[C@H](Cc1ccc2ccccc2c1)C(=O)N[C@H](CCCCN)C(=O)N[C@H](Cc1c[nH]c2ccccc12)C(=O)N[C@@H](Cc1ccccc1)C(=O)N[C@@H](CCCCN)C(N)=O)
Stimulated GH release from rat ([2]; peptide antagonist 30 μg i.v. + stimulator DAla-DβNal-Ala-Trp-DPhe-Lys-NH2 1 μg): 2884 ± 828 ng/mL
Stimulated GH release from rat ([2]; peptide antagonist 100 μg i.v. + stimulator DAla-DβNal-Ala-Trp-DPhe-Lys-NH2 1 μg): 1198 ± 114 ng/mL
Stimulated (S) GH release from rats ([2]; pentobarbital rats, peptide 30 μg i.v., stimulator 1 μg): 2864 ± 828 ng/mL
Stimulated (S) GH release from rats ([2]; pentobarbital rats, peptide 100 μg i.v., stimulator 1 μg): 1198 ± 114 ng/mL
Unstimulated GH release from rats ([2]; pentobarbital rats, peptide 30 μg i.v.): 323 ± 50 ng/mL
Unstimulated GH release from rats ([2]; pentobarbital rats, peptide 100 μg i.v.): 812 ± 6 ng/mL

Substance: Tyr-DAla-Phe-Aib-NH2 (Y[dA]F[Aib]-NH2; N-terminus assumed; SMILES C[C@@H](NC(=O)[C@@H](N)Cc1ccc(O)cc1)C(=O)N[C@@H](Cc1ccccc1)C(=O)NC(C)(C)C(N)=O) [Tyr-DAla-Phe-Alb-NH2]
Stimulated (S) GH release from rats ([2]; non-pentobarbital rats, peptide 30 μg i.v., stimulator 10 μg): 23 ± 5 ng/mL
Unstimulated GH release from rats ([2]; non-pentobarbital rats, peptide 30 μg i.v.): 18 ± 1 ng/mL
